For series [1], the target named is HSP70 (Spodoptera frugiperda (endogenous in Sf9)). Briefly: native MS.
Series [2] has as its target T1, TOPOVIBLΔC25 (monomer) (Mus musculus, UniProt J3QMY9 1-554).
T1 sequence: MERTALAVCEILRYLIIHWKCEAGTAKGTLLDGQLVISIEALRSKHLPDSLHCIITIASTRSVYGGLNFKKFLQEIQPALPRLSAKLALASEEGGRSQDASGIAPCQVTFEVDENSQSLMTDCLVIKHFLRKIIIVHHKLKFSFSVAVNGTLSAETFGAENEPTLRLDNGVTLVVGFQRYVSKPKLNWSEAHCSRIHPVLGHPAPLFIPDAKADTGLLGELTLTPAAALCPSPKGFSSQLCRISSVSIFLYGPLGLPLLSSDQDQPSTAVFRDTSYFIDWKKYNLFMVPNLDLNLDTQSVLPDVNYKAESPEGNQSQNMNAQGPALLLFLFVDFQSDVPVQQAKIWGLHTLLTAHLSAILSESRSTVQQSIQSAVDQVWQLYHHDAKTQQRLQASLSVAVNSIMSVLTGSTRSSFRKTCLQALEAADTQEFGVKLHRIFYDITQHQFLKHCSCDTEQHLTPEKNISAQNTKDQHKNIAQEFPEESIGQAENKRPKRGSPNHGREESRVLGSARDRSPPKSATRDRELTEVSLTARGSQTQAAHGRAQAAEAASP
Briefly: fluorescence anisotropy. In general terms: Polarisation of emitted light reports the rotation of a fluorescent probe.

Series [3] has as its target T1, TOPOVIBLΔC25 (monomer). Briefly: fluorescence anisotropy. The source holds these as a separate data set.
In the next series the target is T2, TOPOVIBLΔC25 K281E K282E (Mus musculus, UniProt J3QMY9 1-554, K281E;K282E).
T2 sequence: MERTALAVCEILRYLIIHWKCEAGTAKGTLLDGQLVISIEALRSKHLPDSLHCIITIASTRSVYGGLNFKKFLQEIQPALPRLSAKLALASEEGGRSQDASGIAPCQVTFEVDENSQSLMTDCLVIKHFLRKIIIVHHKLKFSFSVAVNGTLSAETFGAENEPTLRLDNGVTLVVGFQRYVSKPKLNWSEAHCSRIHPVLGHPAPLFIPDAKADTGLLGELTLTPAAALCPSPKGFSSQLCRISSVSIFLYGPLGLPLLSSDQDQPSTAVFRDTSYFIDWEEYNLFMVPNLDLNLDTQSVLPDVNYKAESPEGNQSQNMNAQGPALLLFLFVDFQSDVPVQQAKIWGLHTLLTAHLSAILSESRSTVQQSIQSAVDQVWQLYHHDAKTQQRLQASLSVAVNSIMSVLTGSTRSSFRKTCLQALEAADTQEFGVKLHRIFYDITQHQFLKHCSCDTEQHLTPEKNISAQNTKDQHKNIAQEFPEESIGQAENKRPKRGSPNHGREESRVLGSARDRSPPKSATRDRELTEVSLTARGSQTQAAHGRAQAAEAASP
The series is described as follows: fluorescence anisotropy.

For series [4], the target named is T1, TOPOVIBLΔC25 (monomer). Briefly: competition.

8 molecules from publication doi:10.1101/2023.11.02.565342 can be followed below.

For HSP70 (natural protein), the stoichiometry N in series [1] came out at 2.

B1: U40 dsDNA (dsDNA)
DNA 1: CTATTGAAAAAGGAAGAGTATGAGTATTCAACATTTCCGC
DNA 2: GCGGAAATGTTGAATACTCATACTCTTCCTTTTTCAATAG
Regarding B1, the binding result with TOPOVIBLΔC25 (monomer) [2] is given as “binds”.

B2: 2B60 dsDNA (dsDNA)
DNA 1: AGAGATGGCCCTTTCCAGAAGCTACCACCATCATGTCTTCTACCACTGTGCACTAATATA
DNA 2: TATATTAGTGCACAGTGGTAGAAGACATGATGGTGGTAGCTTCTGGAAAGGGCCATCTCT
In the series with TOPOVIBLΔC25 (monomer) [3], B2 registered a Kd of 900 nM.

B3: 2B39 dsDNA (dsDNA)
DNA 1: CTTTCCAGAAGCTACCACCATCATGTCTTCTACCACTGT
DNA 2: ACAGTGGTAGAAGACATGATGGTGGTAGCTTCTGGAAAG
As to B3, the binding signal with TOPOVIBLΔC25 K281E K282E turned out to be 3 mutant/wild type Kd ratio. In the series with TOPOVIBLΔC25 (monomer) [3], this molecule displayed a Kd of 650 nM. As to ACAGTGGTAGAAGACATGATGGTGGTAGCTTCTGGAAAG (ssDNA) [ss2B39 (unlabeled competitor)], in the series with TOPOVIBLΔC25 (monomer) [4], the binding result is “binds”. In the case of CTTTCCAGAAGCTACCACCATCATGTCTTCTACCACTGT (ssDNA) [ss2B39 (labeled)], the Kd with TOPOVIBLΔC25 (monomer) [3] worked out at 310 nM.

B4: 2B20 dsDNA (dsDNA)
DNA 1: GCTACCACCATCATGTCTTC
DNA 2: GAAGACATGATGGTGGTAGC
As for B4, the affinity with TOPOVIBLΔC25 (monomer) [3], expressed as Kd, was 1610 nM.

B5: 2B70 dsDNA (dsDNA)
DNA 1: AGACAAGAGATGGCCCTTTCCAGAAGCTACCACCATCATGTCTTCTACCACTGTGCACTAATATAGTGTG
DNA 2: CACACTATATTAGTGCACAGTGGTAGAAGACATGATGGTGGTAGCTTCTGGAAAGGGCCATCTCTTGTCT
Turning to B5, the Kd in the series with TOPOVIBLΔC25 (monomer) [3] worked out at 1500 nM.

Usually stoichiometry N stands for the number of molecules, sites or subunits per partner or assembly. Usually Kd stands for a measure of binding affinity in units of concentration. The low end stands for higher affinity, the high end for lower affinity.
